# Assays:
# [1] = molecular target: Encapsulin from Mycobacterium smegmatis with Streptavidin-tag (^StrepEncSM) (Mycobacterium smegmatis) (UniProt A0R4H0); experiment: FRET or BRET
# [2] = molecular target: Encapsulin from Mycobacterium smegmatis with Streptavidin-tag (^StrepEncSM) (Mycobacterium smegmatis) (UniProt A0R4H0); experiment: in-gel fluorescence against a standard curve
substance,measurement,setting,value
HaloTag construct carrying an encapsulin localization sequence (HaloTag-ELS),fluorophore binding sites per vesicle (fluorophore binding sites per vesicle),[1],> 3
same,labeled cargo proteins per capsid (labeled cargo proteins per capsid),[2],6.6
